B1: SAT2 (parent)
chain: IIKKVAEVALDKGCSQFRLAVLDW
B2: CPN1 (parent)
chain: RGVRRTASTPTPDDKLFQKLAKVY

Variants of: B1
Assay: protein stability index of a GFP-peptide fusion (GPS, HEK-293T) (PSI 1-6); higher = more stable
Conditions: c terminus: a fixed tail appended
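Also: lentivirally expressed fusions sorted by FACS into six bins by GFP to DsRed ratio, PSI derived from sequencing read proportions per bin multiplied by bin number.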

Variant	protein stability index
D23H	3.77
D23Y	2.22
D23M	2.98
D23C	3.04
D23F	1.82
D23V	2.16
D23I	3.25
L22P	2.5
L22W	4.19
L22T	3.66
W24E	2.23
W24H	1.04
W24N	2.22
W24P	1.65
W24D	1.37
W24M	2.37
W24R	1.28
W24T	2.24
W24S	3.1

Variants of: B2
Assay: as above
Conditions: c terminus: a fixed tail appended

Variant	protein stability index
T6H	1.49
T6K	1.61
T6W	2.02
T6Y	1.59
T6I	1.67
T6C	1.52
T6R	1.99
T6S	1.97
T6G	1.74
T6F	2.07
T6L	1.73
T6M	2.02
T6E	2.12
T6V	2.56
T6N	1.56
T6Q	2
T6D	2.93
T6P	1.23
P10C	2.07
P10E	2.81
P10F	2.19
P10D	2.49
P10V	1.79
P10M	1.89
P10R	1.74

Variant	protein stability index
P10I	1.48
P10Y	1.79
P10Q	1.78
P10W	1.36
P10A	2.13
P10G	2.27
P10T	1.75
P10H	1.34
P10N	2.06
P10L	1.02
P10K	1.8
P10S	2.09
S8G	1.1
S8M	1.44
S8N	2.1
S8I	1.57
S8D	2.19
S8T	1.6
S8W	3.14
S8K	2.85
S8H	1.82
S8A	2
S8Q	2.18
S8F	1.7
S8E	1.63

Variant	protein stability index
S8L	1.76
S8Y	3
D14H	2.32
D14V	2.19
D14F	1.75
D14A	2.05
D14Y	1.48
D14L	1.64
D14R	1.93
D14C	1.56
D14N	1.54
D14I	1.23
D14M	2.45
D14G	2.78
D14W	1.68
D14Q	2.35
D14E	1.95
D14T	2.38
D14K	2.35
D14S	2.63
G2L	1.24
G2H	1.87
G2F	1.51
G2M	1.79
G2P	2.19

Variant	protein stability index
G2E	2.35
G2N	3.13
G2K	2.38
G2C	2.22
G2V	2.84
G2R	1.66
G2A	2.52
G2T	2.23
G2S	3.13
G2I	1.76
G2Y	1.64
G2D	2.26
G2Q	1.94
T11L	1.52
T11D	2.26
T11G	2.54
T11M	2.03
T11Q	2.29
T11A	2.29
T11K	2.56
T11W	1.92
T11F	1.92
T11S	1.86
T11H	2.04
T11Y	2.25

Variant	protein stability index
T11N	2.23
T11V	1.67
T11I	1.71
T11R	1.82
T11C	1.83
T11E	2.1
V3R	2.84
V3Y	2.27
V3P	2.35
V3L	2.24
V3A	2.16
V3S	1.93
V3T	2.89
V3C	2
V3D	2.58
V3W	2.66
V3H	2.13
V3N	2.2
V3K	1.62
V3M	1.84
V3I	2.48
V3E	2.24
V3F	2.24
V3G	2.12
V3Q	1.88

Variant	protein stability index
A7M	1.62
A7W	2.59
A7S	1.97
A7N	2.54
A7H	1.41
A7D	2.05
A7V	2.75
A7P	1.85
A7Q	2.37
A7C	1.57
A7Y	2
A7R	1.71
A7E	2.05
A7G	2.38
A7L	1.17
A7T	2.07
A7F	1.25
R5D	2.69
R5Q	2.23
R5H	2.35
R5E	2.57
R5P	2.79
R5W	2.2
R5S	2.23
R5N	2.3

Variant	protein stability index
R5T	2.94
R5F	1.57
R5Y	1.89
R5G	1.7
R5V	1.87
R5C	3.3
R5A	3.41
R5I	2.33
R5K	1.85
R5L	2.07
R5M	2.51
L16D	4.21
L16Y	1.92
L16F	1.9
L16W	1.85
L16I	2.61
L16M	2.65
L16C	2.52
L16G	3.29
L16K	3.56
L16V	2.29
L16P	3.29
L16S	2.95
L16T	3.43
L16N	3.32

Variant	protein stability index
L16H	2.64
L16R	3.34
L16Q	3.31
L16E	2.68
L16A	2.65
P12T	1.81
P12M	2.01
P12N	1.98
P12W	2.48
P12D	2.37
P12E	3.13
P12A	2.06
P12S	3.04
P12G	2.4
P12V	1.68
P12K	2.32
P12I	1.89
P12R	1.89
P12Q	2.05
P12H	1.94
P12L	1.44
P12F	2.38
P12Y	2.94
P12C	1.65
D13C	1.2

Variant	protein stability index
D13Q	1.94
D13M	2.59
D13R	1.63
D13E	1.24
D13S	2.02
D13K	1.88
D13A	1.97
D13L	1.65
D13Y	2.24
D13W	1.61
D13T	1.27
D13H	2.08
D13G	2.37
D13V	1.78
D13F	1.99
D13N	1.89
F17H	2.63
F17I	2.53
F17G	3.25
F17E	3.95
F17M	3
F17P	2.84
F17W	2.26
F17K	3.5
F17C	2.96

Variant	protein stability index
F17Y	2.28
F17V	2.58
F17T	3.67
F17S	2.94
F17D	3.32
F17Q	3.21
F17A	3.19
F17N	2.88
F17L	2.15
F17R	3.43
R1S	2.85
R1V	2.34
R1K	1.89
R1L	2.88
R1A	1.4
R1W	1.02
R1Q	2.42
R1C	1.4
R1Y	2.93
R1D	2.27
R1P	2.27
R1F	1.92
R1M	1.93
R1H	2.58
R1I	1.42

Variant	protein stability index
R1N	2.42
R1T	1.49
Q18E	2.19
Q18D	2.32
Q18L	1.69
Q18A	1.93
Q18F	1.43
Q18N	1.8
Q18I	1.75
Q18C	2.6
Q18M	1.47
Q18H	2.02
Q18K	1.84
Q18G	2.29
T9H	2.27
T9C	2.57
T9L	1.27
T9N	1.54
T9P	3
T9Y	1.52
T9F	2.3
T9S	1.94
T9R	1.3
T9A	2.07
T9W	2.02

Variant	protein stability index
T9K	2.57
T9G	3.11
T9V	1.97
T9Q	1.84
T9M	1.45
T9I	1.68
R4I	2.56
R4Q	1.76
R4W	2.02
R4G	2.57
R4V	2.35
R4H	2.17
R4L	1.92
R4M	2.26
R4A	2.01
R4C	3.17
R4D	3.69
R4E	2.16
R4Y	1.54
R4K	1.51
R4N	1.95
R4S	2.76
K15P	2.12
K15R	1.78
K15H	1.75

Variant	protein stability index
K15T	1.7
K15F	3.23
K15Y	1.63
K15Q	2.08
K15N	1.7
K15C	1.95
K15W	1.93
K15G	2
K15M	1.33
K15S	2.02
K15D	1.99
K15L	1.8
K15E	2.2
K15A	1.58
K15I	1.76
